Columns and labels:
[1] = system: MS2 coat protein; assay: apparent KD of MS2 coat protein, switch ON state; designed switch direction (-1 OFF switch, 1 ON switch): 1; higher = weaker reporter binding; settings: FMN input: 0 or 200 uM; Eterna round: R93 (includes R88 designs)
In short: (§1)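 Each design's apparent KD comes from the median of binding-curve fits to its normalised clusters. Those clusters carried RNA switches transcribed on-chip from Illumina sequencing clusters. SNAP-549-labelled MS2 coat protein was titrated onto them in twofold steps (0.7 or 1.5 nM to 3 µM; per step 0.8–1.5 h down to 10–20 min). Conditions were 100 mM Tris-HCl pH 7.5, 80 mM KCl, 4 mM MgCl2, without or with constant ligand.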

[2] = system: MS2 coat protein; assay: apparent KD of MS2 coat protein, switch OFF state (with FMN for OFF switches, without FMN for ON switches); designed switch direction (-1 OFF switch, 1 ON switch): 1; higher = weaker reporter binding; settings: FMN input: 0 or 200 uM; Eterna round: R93 (includes R88 designs)
In short: as §1

Sequence	apparent KD of MS2 coat protein [1]	apparent KD of MS2 coat protein [2]
AAUACACAUGAGGAUCACCCAUGUAGAAAGAAGUCAGGAUAUCCGAUCCACAUGUGAUAAGGAGAAGGGACAAUAA [SS 1 Tesla 8]	19.6 nM	95.4 nM
AAUAUACAUGAGGAUCACCCAUGUUUUAAUAACUCAGGAUAUACGGGUGAAAACAGCAUAGUAGAAGGGAGAAAAA [SameState1 Malc#2]	44 nM	113 nM
AAUAUACAUGAGGAUCACCCAUGUUUUAAUAGCUGAGGAUAUACGGGUGAAAACAGCAUAGUAGAAGGCGGGUGUA [SameState1 Malc#8]	99.6 nM	115 nM
AAUGAACAUGAGGAUCACCCAUGUUCUAAUAGUUGAGGAUAUAUGGGUGAAAAUAGCACAGUAGAAGGCGAGUGUA [SameState1 Malc#17]	408 nM	262 nM
AGAAAGAAAAGAGAGGAUAUCUAAAAGAAAACAUGAGGAUCACCCAUGUAAAAGAAAAGAAAAUGGGAGAAGGCUUAUGAGAAAG [JL Skelter Mod 8 In the Red]	107 nM	82 nM
AGAAAUAAAACACAGGAUAUCCAAAAUAAAACAUGAGGAUCACCCAUGUAAAGAAAAGAAAAAUGGGAGAAGGGUGAAAAUAAGA [Mat - Same State 2 - JL mod - D19]	19.4 nM	69.7 nM
AGAAAUAAAAGAGAGGAUAUGCAAAAGAUAACAUGAGGAUCACCCAUGUAAAAGAAAAUAAAUGGGUAGAAGGCUCAAAAUAAGA [Jieux modified]	86.4 nM	64.9 nM
AGAAAUAAAAGAGAGGAUAUUCAAAAAGGGACAUGAGGAUCACCCAUGUAAAAGAAAAUAAAAUGGGAGAAGGCUCUAAAUAAAG [80%, More Helter Skelter 2]	86.6 nM	127 nM
AGAAAUAAAGCGAAGGAUAUCCAAACCUAAACAUGAGGAUCACCCAUGUAAAAGAAAAUAAAAUGGGAGAAGGUCGCAAAUAAGA [Designing denovo 14]	13.5 nM	22.8 nM
AGAAGACAUGAGGAUCACCCAUGUGGGAUUAUGGGAGGAUAUACAAAGACGAGAGUCAGAGUAGAAGGCCUAGGAA [salish99-ss1-112(!!!!!)]	29 nM	70.5 nM
AGAAUAAAAAGACAGGAUAUCCAAAAAAAAACAUGAGGAUCACCCAUGUAAAAAAAAUAAAAAUGGGAGAAGGGUCAAAAUAAGA [Mat - Same State 2 - JL mod - D64]	19.9 nM	35.9 nM
AGACAUAAAAGAGAGGAUAUCCAAAAGAAAACAUGAGGAUCACCCAUGUGAAAGAAAAUAAAAUGGGAGAAGGCUCACAUACAGA [Topaz 36]	14.1 nM	27.4 nM
AGCAUCACCAGUCAGGAUAUGUAGGCCUUGACAUGAGGAUCACCCAUGUGGACGAAACACCGGCCACAGAAGGGAUUGUAAAUAA [Ries]	434 nM	67.4 nM
AGCGAACAUGAGGAUCACCCAUGUCCCGCGAAUCAAGGAUAUGGGCAGAUGAGUCCUGCGCCAGAAGGUGAGUAAA [Rigeesar]	49.6 nM	132 nM
AGCGAACAUGAGGAUCACCCAUGUGAAAAACAUAGAGGAUAUGUCGCAUGAGUGUAAAAGACAGAAGGCUAUCGCA [Mod of Nando]	38.8 nM	116 nM
AGGAAACAUGAGGAUCACCCAUGUAAAAAAUGGGUAGGAUAUGCGAAAAGAAAAAGAAAAGCAGAAGGGCCAAGAA [62%, Something completely different, 3]	46 nM	444 nM
AGGAAACAUGAGGAUCACCCAUGUAAGAUAAACACAGGAUAUGCGAAAAGAAACAAAGAAGCAGAAGGGUGGAGAA [75%, Ex5 sub 1, 3]	19.4 nM	25.1 nM
AGGAAACAUGAGGAUCACCCAUGUAUAAAAUAGGGAGGAUAUACUAAGACGAAAGUCAUAGUAGAAGGUCCAAAAA [76%, Meechl, 13]	17.9 nM	23.4 nM
AUAAAACAUGAGGAUCACCCAUGUAGAAAUAUGGGAGGAUAUACGAGGACGAAAGUCAAAGUAGAAGGCCUAAAAG [Mat - Same State 1 - Meechl mod - D120]	22.7 nM	40.6 nM

Sequence	apparent KD of MS2 coat protein [1]	apparent KD of MS2 coat protein [2]
AUAAAACAUGAGGAUCACCCAUGUAGAAAUAUGGGAGGAUAUACUAGAUCGAAAGAUCUAGUAGAAGGCCUUUAAG [JL Mod of Eli 4]	29.6 nM	49.9 nM
AUAAAACAUGAGGAUCACCCAUGUAGAAAUAUGGGAGGAUAUACUAGAUCGAAAGAUCUAGUAGAAGGCCUUUAUA [JL Mod of Eli 6]	19.9 nM	45.9 nM
AUAAAACAUGAGGAUCACCCAUGUCAAGGCUAUCAAGGAUAUAGGAAGCGUAGCGGUUGACUAGAAGGUGAGAAAU [Ragexequ]	66.9 nM	52.4 nM
AUAAAAUAAAGUCAGGAUAUCUAUAAUAAAACAUGAGGAUCACCCAUGUUAAAAAAAAGAUCAUGGGAGAAGGGACAAAAUAAAU [SS2 M 32]	27 nM	28.3 nM
AUAAUAAGAAGCUAGGAUAUGCUAAAGUAAACAUGAGGAUCACCCAUGUAAAGAAAAAAACUCAUGUAGAAGGAGCAGAAAUAAA [moonwalk 6]	99.1 nM	106 nM
AUACGUACGUAUGAGGAUAUCCAUAAUAAGACAUGAGGAUCACCCAUGUAAACAAAACAAUAAUGGGAGAAGGCAUACGUACGAU [SS 2 M 50]	47.7 nM	54.8 nM
AUAUAUAUAAGGAAGGAUAUCUUAGAAAAAACAUGAGGAUCACCCAUGUAAAUAAAGAAUAAAUGGGAGAAGGUCCAUAUAUAUA [77%, More Tesla, 10]	15.1 nM	109 nM
AUGAAUAGCAUCGAGGAUAUCCAGUCAUGAACAUGAGGAUCACCCAUGUAAGAGAGAGUAUAAUGGGAGAAGGCGAGUAAUCGAU [JR_SS002_Sub1703]	40.3 nM	105 nM
AUUACAUAUAGUUAGGAUAUCAUAUGUAAGACAUGAGGAUCACCCAUGUCCUAAGAAUAGGUAAAUGAGAAGGAACAGUGAGUAU [JR_SS002_Sub419]	17.1 nM	23.9 nM
CCCAAUGCAACGAAGGAUAUCCGUCAUGCUACAUGAGGAUCACCCAUGUACUGGCAGCGCAAGGCGGAGAAGGUCGGGUGCUGUG [Leusesbe]	12 nM	12.6 nM
CCCUCGCAAUAACAGGAUAUACAUGGUCAAACAUGAGGAUCACCCAUGUGAGGAAGUUGGCGGUCGUAGAAGGGUUGUUGGCUCA [Beisvesoqu]	42.8 nM	166 nM
CGAAAGGAGAGAGAGGAUAUCCAAAGGAAAACAUGAGGAUCACCCAUGUAGAAGGUAGGAGAUUGGGAGAAGGCUCAAGAGAGAU [salish99-ss2-147]	32.1 nM	34.3 nM
CGAAAGGAGAGAGAGGAUAUCCAAAGGAAAACAUGAGGAUCACCCAUGUAGAAGGUAGGAGAUUGGGAGAAGGCUCAAGAGAGUA [salish99-ss2-149]	25.7 nM	36.3 nM
CGAAAGUAUGCACAGGAUAUGUACAGGCUAACAUGAGGAUCACCCAUGUGAAAAUGGACCAUGUCGCAGAAGGGUGCCCUCCCGA [Mageor]	22.1 nM	40.2 nM
CGGAAGGAGAGAGAGGAUAUCCAAAGGAAAACAUGAGGAUCACCCAUGUAGAAGGUAGGAAAUUGGGAGAAGGCUCAAGAGACAG [salish99-ss2-125]	25.3 nM	55.9 nM
CGGAAGGAGAGAGAGGAUAUCCAAAGGAAAACAUGAGGAUCACCCAUGUAGAAGGUAGGAAAUUGGGAGAAGGCUCAAGAGAUAG [salish99-ss2-124]	20.6 nM	39.1 nM
CUUUCCGCGCUAUAGGAUAUGAAUGAACCUACAUGAGGAUCACCCAUGUCGAACUCGGUCCAAAAUCAGAAGGAUGGCGAGGCGC [Oratis]	119 nM	178 nM
GAAAAACAUGAGGAUCACCCAUGUAAGAUAAACACAGGAUAUGCGAAAAUAAAUAAAGAAGCAGAAGGGUGAAGAA [Mat - Same State 1 - Tesla mod - 73]	11.1 nM	26.5 nM
GAAAAACAUGAGGAUCACCCAUGUAGAAAUAUGGGAGGAUAUACAAAGACGAAAGUCAAAGUAGAAGGCCUAAAGA [Mat - Same State 1 - Eli mod - 34]	15.5 nM	91.1 nM

— the supplement of paper PMC9170038
